Reference: US20230293647A1 (AUTOLUS, published 2023)

Tests used:
Test in all cases: cell microarray
[1] = molecular target: T1, TTYH2 (human, UniProt Q9BSA4)
T1 sequence (looked up): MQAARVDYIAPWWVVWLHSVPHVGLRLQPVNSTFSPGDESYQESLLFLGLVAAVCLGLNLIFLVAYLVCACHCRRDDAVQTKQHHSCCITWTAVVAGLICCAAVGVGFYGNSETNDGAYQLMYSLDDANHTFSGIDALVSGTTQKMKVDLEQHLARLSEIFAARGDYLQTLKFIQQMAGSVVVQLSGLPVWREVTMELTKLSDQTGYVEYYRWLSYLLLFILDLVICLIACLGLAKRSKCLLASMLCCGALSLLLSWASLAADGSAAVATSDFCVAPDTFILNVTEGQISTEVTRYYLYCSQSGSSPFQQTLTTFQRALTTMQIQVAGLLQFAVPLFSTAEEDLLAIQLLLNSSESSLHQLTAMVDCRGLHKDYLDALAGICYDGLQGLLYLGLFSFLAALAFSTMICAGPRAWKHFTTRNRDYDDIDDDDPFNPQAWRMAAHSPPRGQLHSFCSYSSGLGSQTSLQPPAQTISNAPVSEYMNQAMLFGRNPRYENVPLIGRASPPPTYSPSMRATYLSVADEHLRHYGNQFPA

[2] = molecular target: T2, ADGRG7 (human, UniProt Q96K78)
T2 sequence (looked up): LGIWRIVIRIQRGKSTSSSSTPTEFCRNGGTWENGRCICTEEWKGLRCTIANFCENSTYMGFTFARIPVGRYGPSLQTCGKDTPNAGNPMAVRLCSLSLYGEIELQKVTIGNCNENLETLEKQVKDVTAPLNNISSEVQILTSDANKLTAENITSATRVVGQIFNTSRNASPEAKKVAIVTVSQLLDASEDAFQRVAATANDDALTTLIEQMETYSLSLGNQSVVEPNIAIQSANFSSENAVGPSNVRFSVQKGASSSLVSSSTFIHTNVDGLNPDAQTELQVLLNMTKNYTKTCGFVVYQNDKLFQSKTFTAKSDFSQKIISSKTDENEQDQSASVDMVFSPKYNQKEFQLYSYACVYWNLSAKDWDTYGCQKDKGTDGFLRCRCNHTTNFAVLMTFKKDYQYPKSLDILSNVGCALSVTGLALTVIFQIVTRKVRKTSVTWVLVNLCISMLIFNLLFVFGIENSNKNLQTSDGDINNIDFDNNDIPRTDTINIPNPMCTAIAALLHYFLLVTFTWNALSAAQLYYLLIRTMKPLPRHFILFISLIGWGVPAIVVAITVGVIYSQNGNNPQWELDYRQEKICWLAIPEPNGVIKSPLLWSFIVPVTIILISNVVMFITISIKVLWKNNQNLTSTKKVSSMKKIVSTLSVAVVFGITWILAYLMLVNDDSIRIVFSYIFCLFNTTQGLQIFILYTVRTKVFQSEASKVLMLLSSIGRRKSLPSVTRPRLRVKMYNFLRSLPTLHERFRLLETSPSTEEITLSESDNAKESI

[3] = molecular target: T3, SLC26A4 (human, UniProt O43511)
T3 sequence (looked up): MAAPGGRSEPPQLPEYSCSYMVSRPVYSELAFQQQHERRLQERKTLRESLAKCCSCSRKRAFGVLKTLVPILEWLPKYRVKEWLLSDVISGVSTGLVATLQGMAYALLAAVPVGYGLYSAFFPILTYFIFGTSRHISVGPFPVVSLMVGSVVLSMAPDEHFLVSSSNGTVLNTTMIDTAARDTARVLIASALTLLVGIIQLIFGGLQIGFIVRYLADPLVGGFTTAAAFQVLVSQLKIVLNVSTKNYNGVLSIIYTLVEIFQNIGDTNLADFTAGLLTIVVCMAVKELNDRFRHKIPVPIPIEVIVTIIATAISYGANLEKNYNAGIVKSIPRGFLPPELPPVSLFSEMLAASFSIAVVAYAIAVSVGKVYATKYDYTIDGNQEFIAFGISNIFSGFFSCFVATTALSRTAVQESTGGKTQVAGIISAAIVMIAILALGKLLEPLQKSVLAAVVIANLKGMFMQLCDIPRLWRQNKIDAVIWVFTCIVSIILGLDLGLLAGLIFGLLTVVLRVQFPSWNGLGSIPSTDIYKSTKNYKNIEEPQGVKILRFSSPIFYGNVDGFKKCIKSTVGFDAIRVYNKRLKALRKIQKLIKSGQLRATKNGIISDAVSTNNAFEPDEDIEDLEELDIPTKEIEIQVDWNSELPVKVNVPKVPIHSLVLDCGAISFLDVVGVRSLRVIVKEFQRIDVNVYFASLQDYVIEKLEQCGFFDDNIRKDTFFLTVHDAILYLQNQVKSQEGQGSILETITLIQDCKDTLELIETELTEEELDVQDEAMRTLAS

[4] = molecular target: T4, SIGLEC15 (human, UniProt Q6ZMC9)
T4 sequence (looked up): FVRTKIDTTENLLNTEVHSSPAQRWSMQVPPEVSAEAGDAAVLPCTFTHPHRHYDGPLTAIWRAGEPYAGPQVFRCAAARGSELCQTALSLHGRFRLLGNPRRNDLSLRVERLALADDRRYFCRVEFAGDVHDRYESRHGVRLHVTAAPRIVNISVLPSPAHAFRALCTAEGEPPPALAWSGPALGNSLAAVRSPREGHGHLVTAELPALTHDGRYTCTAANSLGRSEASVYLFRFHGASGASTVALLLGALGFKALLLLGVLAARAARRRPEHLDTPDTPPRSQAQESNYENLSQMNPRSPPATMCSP

[5] = molecular target: CXCL12 (human, UniProt P48061)
[6] = molecular target: EGFR (human, UniProt P00533)
[7] = molecular target: T5, CD86 (cell microarray) (human, UniProt P42081 24-329)
T5 sequence (looked up): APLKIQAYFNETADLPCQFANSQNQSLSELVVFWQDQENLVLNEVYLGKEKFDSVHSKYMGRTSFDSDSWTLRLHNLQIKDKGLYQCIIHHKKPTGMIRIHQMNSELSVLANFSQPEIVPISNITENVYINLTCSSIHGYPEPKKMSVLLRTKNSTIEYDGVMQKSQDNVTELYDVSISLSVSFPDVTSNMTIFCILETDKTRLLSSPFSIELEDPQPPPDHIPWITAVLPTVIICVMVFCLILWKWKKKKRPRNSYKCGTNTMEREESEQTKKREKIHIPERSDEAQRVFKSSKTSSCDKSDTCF

[8] = molecular target: FcγRIa (cell microarray) (human, UniProt P12314 16-374)

Measured: binding result

Sequence of FcγRIa (cell microarray) (P12314 16-374): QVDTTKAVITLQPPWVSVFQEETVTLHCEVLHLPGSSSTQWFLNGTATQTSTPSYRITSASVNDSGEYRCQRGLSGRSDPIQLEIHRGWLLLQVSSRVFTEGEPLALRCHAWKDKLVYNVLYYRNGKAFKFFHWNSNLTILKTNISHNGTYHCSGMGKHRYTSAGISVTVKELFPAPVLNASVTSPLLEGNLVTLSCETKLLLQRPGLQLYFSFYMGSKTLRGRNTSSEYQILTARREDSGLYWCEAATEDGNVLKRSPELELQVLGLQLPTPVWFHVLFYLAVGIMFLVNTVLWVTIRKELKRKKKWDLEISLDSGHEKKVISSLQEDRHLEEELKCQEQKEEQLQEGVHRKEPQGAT
Sequence of CXCL12 (P48061 22-89 limits assumed): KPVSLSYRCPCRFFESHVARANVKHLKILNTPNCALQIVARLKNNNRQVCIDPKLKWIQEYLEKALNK

B1: Fc LALA-PG only construct with the ACE2 domain omitted (other)
chain: EPKSCDKTHTCPPCPAPEAAGGPSVFLFPPKPKDTLMISRTPEVTCVVVDVSHEDPEVKFNWYVDGVEVHNAKTKPREEQYNSTYRVVSVLTVLHQDWLNGKEYKCKVSNKALGAPIEKTISKAKGQPREPQVYTLPPSREEMTKNQVSLTCLVKGFYPSDIAVEWESNGQPENNYKTTPPVLDSDGSFFLYSKLTVDKSRWQQGNVFSCSVMHEALHNHYTQKSLSLSPGK
notes: also called control Fc (LALA-PG)
no binding: [1] | [2] | [3] | [4] | [5] | [6] | [7] | [8]
